According to publication PMC10776578, “Epstein-Barr virus-driven B cell lymphoma mediated by a direct LMP1-TRAF6 complex” (Nature Communications, 2024):

B1: unnamed (parent)
chain 1: DHQIRELTAKMETQSMYVSELKRTIRTLEDKVAEIEAQQCNGIYIWKIGNFGMHLKCQEEEKPVVIHSPGFYTGKPGYKLCMRLHLQLPTAQRCANYISLFVHTMQGEYDSHLPWPFQGTIRLTILDQSEAPVRQNHEEIMDAKPELLAFQRPTIPRNPKGFGYVTFMHLEALRQRTFIKDDTLLVRCEVSTRFDMGSLRREGFQPRSTDAGV
chain 2: LIWMYYHGQRHSDEHHHDDSLPHPQQATDDSGHESDSNSNEGRHHLLVSGAGDGPPLCSQNLGAPGGGPDNGPQDPDNTDDNGPQDPDNTDDNGPHDPLPQDPDNTDDNGPQDPDNTDDNGPHDPLPHSPSDSAGNDGGPPQLTEEVENKGGDQGPPLMTDGGGGHSHDSGHGGGDPHLPTLLLGSSGSGGDDDDPHGPVQLSYYD
B2: unnamed (parent)
chain 1: B1 chain 1
chain 2: GGGPYAQGEDARMLSLVSKTEIEEDSFRQMPTEDEYMDRPSQ

Variants of: B1
Assay: AlphaScreen
Conditions: with partner chain of the complex shown

Row | Variant | Kd [nM]
1 | chain 2 LIWMYYHGQRHSDEHHHDDSLPHPQQATDDSGHESDSNSNEGRHHLLVSGAGDGPPLCSQNLGAPGGGPDNGPQDPDNTDDNGPQDPDNTDDNGPHDPLPQDPDNTDDNGPQDPDNTDDNGPHDPLPHSPSDSAGNDGGPPQLTEEVENKGGDQGPPLMTDGGGGHSHDSGHGGGDPHLPTLLLGSSGSGGDDDDPHGPVQLSFYD [chain 2 Y204F] | 21.7

Same assay, conditions: with partner chain of the complex shown; 100 nM His-TRAF6; parent: 100; read off a plot

Row | Variant | percent of parent [%]
2 | chain 2 Y204A | 11
3 | chain 2 LIWMYYHGQRHSDEHHHDDSLPHPQQATDDSGHESDSNSNEGRHHLLVSGAGDGPPLCSQNLGAPGGGPDNGPQDPDNTDDNGPQDPDNTDDNGPHDPLPQDPDNTDDNGPQDPDNTDDNGPHDPLPHSPSDSAGNDGGPPQLTEEVENKGGDQGPPLMTDGGGGHSHDSGHGGGDPHLPTLLLGSSGSGGDDDDPHGPVQASYYD [chain 2 L202A] | 100
4 | chain 2 Q201A | 7
5 | chain 2 LIWMYYHGQRHSDEHHHDDSLPHPQQATDDSGHESDSNSNEGRHHLLVSGAGDGPPLCSQNLGAPGGGPDNGPQDPDNTDDNGPQDPDNTDDNGPHDPLPQDPDNTDDNGPQDPDNTDDNGPHDPLPHSPSDSAGNDGGPPQLTEEVENKGGDQGPPLMTDGGGGHSHDSGHGGGDPHLPTLLLGSSGSGGDDDDPHGPVQLAYYD [chain 2 S203A] | 94
6 | chain 2 LIWMYYHGQRHSDEHHHDDSLPHPQQATDDSGHESDSNSNEGRHHLLVSGAGDGPPLCSQNLGAPGGGPDNGPQDPDNTDDNGPQDPDNTDDNGPHDPLPQDPDNTDDNGPQDPDNTDDNGPHDPLPHSPSDSAGNDGGPPQLTEEVENKGGDQGPPLMTDGGGGHSHDSGHGGGDPHLPTLLLGSSGSGGDDDDPHAPVQLSYYD [chain 2 G198A] | 75

Same assay, conditions: with partner chain of the complex shown; 300 nM His-TRAF6; parent: 100; read off a plot

Row | Variant | percent of parent [%]
7 | chain 2 Y204A | 10
8 | chain 2 LIWMYYHGQRHSDEHHHDDSLPHPQQATDDSGHESDSNSNEGRHHLLVSGAGDGPPLCSQNLGAPGGGPDNGPQDPDNTDDNGPQDPDNTDDNGPHDPLPQDPDNTDDNGPQDPDNTDDNGPHDPLPHSPSDSAGNDGGPPQLTEEVENKGGDQGPPLMTDGGGGHSHDSGHGGGDPHLPTLLLGSSGSGGDDDDPHGPVQASYYD [chain 2 L202A] | 98
9 | chain 2 Q201A | 6
10 | chain 2 LIWMYYHGQRHSDEHHHDDSLPHPQQATDDSGHESDSNSNEGRHHLLVSGAGDGPPLCSQNLGAPGGGPDNGPQDPDNTDDNGPQDPDNTDDNGPHDPLPQDPDNTDDNGPQDPDNTDDNGPHDPLPHSPSDSAGNDGGPPQLTEEVENKGGDQGPPLMTDGGGGHSHDSGHGGGDPHLPTLLLGSSGSGGDDDDPHGPVQLAYYD [chain 2 S203A] | 88
11 | chain 2 LIWMYYHGQRHSDEHHHDDSLPHPQQATDDSGHESDSNSNEGRHHLLVSGAGDGPPLCSQNLGAPGGGPDNGPQDPDNTDDNGPQDPDNTDDNGPHDPLPQDPDNTDDNGPQDPDNTDDNGPHDPLPHSPSDSAGNDGGPPQLTEEVENKGGDQGPPLMTDGGGGHSHDSGHGGGDPHLPTLLLGSSGSGGDDDDPHAPVQLSYYD [chain 2 G198A] | 84

Same assay, conditions: with partner chain of the complex shown; 1000 nM His-TRAF6; parent: 100; read off a plot

Row | Variant | percent of parent [%]
12 | chain 2 Y204A | 9
13 | chain 2 LIWMYYHGQRHSDEHHHDDSLPHPQQATDDSGHESDSNSNEGRHHLLVSGAGDGPPLCSQNLGAPGGGPDNGPQDPDNTDDNGPQDPDNTDDNGPHDPLPQDPDNTDDNGPQDPDNTDDNGPHDPLPHSPSDSAGNDGGPPQLTEEVENKGGDQGPPLMTDGGGGHSHDSGHGGGDPHLPTLLLGSSGSGGDDDDPHGPVQASYYD [chain 2 L202A] | 98
14 | chain 2 Q201A | 4
15 | chain 2 LIWMYYHGQRHSDEHHHDDSLPHPQQATDDSGHESDSNSNEGRHHLLVSGAGDGPPLCSQNLGAPGGGPDNGPQDPDNTDDNGPQDPDNTDDNGPHDPLPQDPDNTDDNGPQDPDNTDDNGPHDPLPHSPSDSAGNDGGPPQLTEEVENKGGDQGPPLMTDGGGGHSHDSGHGGGDPHLPTLLLGSSGSGGDDDDPHGPVQLAYYD [chain 2 S203A] | 90
16 | chain 2 LIWMYYHGQRHSDEHHHDDSLPHPQQATDDSGHESDSNSNEGRHHLLVSGAGDGPPLCSQNLGAPGGGPDNGPQDPDNTDDNGPQDPDNTDDNGPHDPLPQDPDNTDDNGPQDPDNTDDNGPHDPLPHSPSDSAGNDGGPPQLTEEVENKGGDQGPPLMTDGGGGHSHDSGHGGGDPHLPTLLLGSSGSGGDDDDPHAPVQLSYYD [chain 2 G198A] | 96

Variants of: B2
Assay: AlphaScreen
Conditions: with partner chain of the complex shown; parent: 100; read off a plot

Row | Variant | percent of parent [%]
17 | chain 1 DHQIRELTAKMETQSMYVSELKRTIRTLEDKVAEIEAQQCNGIYIWKIGNFGMHLKCQEEEKPVVIHSPGFYTGKPGYKLCMRLHLQLPTAQRCANYISLFVHTMQGEYDSHLPWPFQGTIRLTILDQSEAPVRQNHEEIMDAKPELLAFQRPTIPRNPKGAGYVTFMHLEALRQRTFIKDDTLLVRCEVSTRFDMGSLRREGFQPRSTDAGV [chain 1 F162A] | 1

Same assay, conditions: with partner chain of the complex shown

Row | Variant | Kd [nM]
18 | chain 2 GGGPYAQGEDARMLSLVSKTEIEEDSFRQMPTQDEYMDRPSQ | 15.6
